Assay results: patent publication US20190256608A1 (GlaxoSmithKline, published 2019)

Biological target: cynomolgus PD-1 (cynomolgus)
Experiment: kinetic analysis (bio-light interferometry)

Kd: 0.118 nM
B1: Pembrolizumab (antibody, human IgG4 S228P, kappa, V domains shown)
VH: QVQLVQSGVEVKKPGASVKVSCKASGYTFTNYYMYWVRQAPGQGLEWMGGINPSNGGTNFNEKFKNRVTLTTDSSTTTAYMELKSLQFDDTAVYYCARRDYRFDMGFDYWGQGTTVTVSS
VL: EIVLTQSPATLSLSPGERATLSCRASKGVSTSGYSYLHWYQQKPGQAPRLLIYLASYLESGVPARFSGSGSGTDFTLTISSLEPEDFAVYYCQHSRDLPLTFGGGTKVEIKR
notes: also called MK3475
